A short description of the data set: label from the status in PepcDB records.
On to “MDFVPKILGNVVLLLSAGLNWTAMRVFAGRRPHVPGLLAGAGIWLILCVVPAFYQSMPVRVSVYSLLAAAYGVLTLLEFWRSRQQLEVAYMPAVVLTLLHTMYYIVRAVVDQGVAMDQALKGYGAGVPLFSFMLFESMLYVIGIAYVTLCMVKERVELRFKAAAFCDALTGIGNRRAFMVNGERMLIECQRRCSPMALLLCDLDHFKRLDDAYGHQTGDQVLVAFSQVLAETLGTKDVYARIGGEEFACLLAATDEQAAVTVAERVRQAFARLPLLEPGLLSVSIGVVSSETRGYDLPRLLSLADEALYDAKHQGRNRVHTVSRSALELQPD”, for which the protein production result is “failed”.

As to “MDFVPSLPTLIAFTIAILLLAVTPGPDMTLWISRSLREGRAAGFMTLVGTNIGITVHTMLVAFGVAALIVASPTAFMILKTGGAAYLVWLAIQAIRKGSDFVMVKSTGEKAQASLKSALLNGIWVNLLNPKVIIFFMTFLPQFVSATDPHVTGKLIFLGIWSIIVALPIGIGIVVTADILSAWLQRNRKVLRGLDYTIAGVFSLFAVKIFFTQTR”, the protein production entry is listed as “failed”.

For “MDFYQFAEYIVLNYGYFGIFLIAFTEAVIQPILPDIFIIGASAFGLDSVTCALVASFGSLTGGYTGYFLGKKLGTNVFLKIFKEKYFIKGKAFFEKFGVWGVAIAGFTPIPYKVFAWLAGIFKMNLVSFGAGTLLGRIPRFLLVAYFGYSLGLLFGLHTP”, the protein production entry is given as “failed”.

Turning to “MDGDFRTSFVREPAGLRPYPALVLNADYRPLSYYPLSLWPWQEAIKAAFLDRVSIVAEYDQVVRSQRAALRIPSVVVLKEFVSPQKRVAFTRFNLFLRDEFRCQYCGAKGDLTFDHVVPRARGGVTSWQNVVAACSPCNLHKGSKTLKQAGMRLARIPREPTPAEMQRHGQRFPPNHLHDSWLDYLYWDAELEALEHHHHHH”, the protein production result is “failed”.

With “MDGHNQNQYQNQNQIQQSQQPPLKKYVTQRRSVDVSSPYINLYYNRRHGLPNLVVEPETSYTIDIMPPNAYRGRDRVINLPSKFTHLSSNKVKHVIPAIQWTPEGRRLVVATYSGEFSLWNASSFTFETLMQAHDSAVTTMKYSHDSDWMISGDADGMIKIWQPNFSMVKEIDAAHTESIRDMAFSSNDSKFVTCSDDNILKIWNFSNGKQERVLSGHHWDVKSCDWHPEMGLIASASKDNLVKLWDPRSGNCISSILKFKHTVLKTRFQPTKGNLLMAISKDKSCRVFDIRYSMKELMCVRDETDYMTLEWHPINESMFTLACYDGSLKHFDLLQNLNEPILTIPYAHDKCITSLSYNPVGHIFATAAKDRTIRFWTRARPIDPNAYDDPTYNNKKINGWFFGINNDINAVREKSEFGAAPPPPATLEPHALPNMNGFINKKPRQEIPGIDSNIKSSTLPGLSI”, the protein production result is “failed”.

For “MDGSNVTSFVVEEPTNISTGRNASVGNAHRQIPIVHWVIMSISPVGFVENGILLWFLCFRMRRNPFTVYITHLSIADISLLFCIFILSIDYALDYELSSGHYYTIVTLSVTFLFGYNTGLYLLTAISVERCLSVLYPIWYRCHRPKYQSALVCALLWALSCLVTTMEYVMCIDREEESHSRNDCRAVIIFIAILSFLVFTPLMLVSSTILVVKIRKNTWASHSSKLYIVIMVTIIIFLIFAMPMRLLYLLYYEYWSTFGNLHHISLLFSTINSSANPFIYFFVGSSKKKRFKESLKVVLTRAFKDEMQPRRQKDNCNTVTVETVV”, the protein production entry is on record as “failed”.

As to “MDHGVVLLSDDQGLQWRQASSVPLSTPLTGVSFVDAKRGWAVGHWGAILITTDGGESWQVQRLATEEDRPLFAVHFFNARQGVAVGLWSLVLTTEDGGQTWSEQPLQAPPGAKRADLNLMGLFADSRGTLYATAEHGQVLHSEDQGKNWRYLDTGYEGTLWAGAVLADGRLLLGGQRGTLLQGSADGKGFHRVPTQSKGSVTCVAVAGSRVLAVGLDGLSVQSSDGGHSFQETQTADGLSLTAALFNAEGVPVLFSRRGVMPYQELEHHHHHH”, the protein production result is recorded as “failed”.

Take “MDHKDLAQRILRDIGGEDNIVAAAHCATRLRLVLKDTKDVDRQSLDDDPDLKGTFETGGMFQIIVGPGDVDHVFKELDDATSKDIAVSTEQLKDVVANNANWFSRAVKVLADIFVPLIPILVGGGLLMAINNVLVAQDLFGPQSLVEMFPQISGVAEMINLMASAPFAFLPVLVGFTATKRFGGNEFLGAGIGMAMVFPSLVNGYDVAATMAAGEMPMWSLFGLDVAQAGYQGTVLPVLVVSWILATIEKFLHKRLKGTADFLITPVLTLLLTGFLTFIAIGPAMRWVGDVLAHGLQGLYDFGGPVGGLLFGLVYSPIVITGLHQSFPPIELELFNQGGSFIFATASMANIAQGAACLAVFFLAKSEKLKGLAGASGVSAVLGITEPAIFGVNLRLRWPFFIGIGTAAIGGALIALFNIKAVALGAAGFLGVVSIDAPDMVMFLVCAVVTFFIAFGAAIAYGLYLVRRNGSIDPDATAAPVPAGTTKAEAEAPAEFSNDSTIIQAPLTGEAIALSSVSDAMFASGKLGSGVAIVPTKGQLVSPVSGKIVVAFPSGHAFAVRTKAEDGSNVDILMHIGFDTVNLNGTHFNPLKKQGDEVKAGELLCEFDIDAIKAAGYEVTTPIVVSNYKKTGPVNTYGLGEIEAGANLLNVAKKEAVPATP”: the protein production result is recorded as “failed”.

“MDHQFGYGVEVTGLSPSVTHNDLIDFFSFSGTIQDIDIVRSGEQACTAYVMFKDSYSQETAVLLTGATILDQRVCITRWGQHHEEFDFWNATSRGFEDESDSQHYAQRSEFNAGEAVTKAQEVVKIMLATGFVLGKDALSKAKAFDESHGVSAAAVARVSQLEQRIGLTDKIFTGLEAVRMTDQRYHVSDTAKSAVFATGRTAAAAATSVVNSSYFSSGALWLSGALERAAKAASDLGTRGSRQ”: the protein production entry was “failed”.

As to “MDHTSPTYMLANLTHLHSEQLLQGLNLLRQHHELCDIILRVGDVKIHAHKVVLASVSPYFKAMFTGNLSEKENSEVEFQCIDETALQAIVEYAYTGTVFISQDTVESLLPAANLLQIKLVLKECCAFLESQLDPGNCIGISRFAETYGCRDLYLAATKYICQNFEAVCQTEEFFELTHADLDEIVSNDCLNVATEETVFYALESWIKYDVQERQKYLAQLLNSVRLPLLSVKFLTRLYEANHLIRDDRTCKHLLNEALKYHFMPEHRLSHQTVLMTRPRCAPKVLCAVGGKSGLFACLDSVEMYFPQNDSWIGLAPLNIPRYEFGICVLDQKVYVIGGIATNVRPGVTIRKHENSVECWNPDTNTWTSLERMNESRSTLGVVVLAGELYALGGYDGQSYLQSVEKYIPKIRKWQPVAPMTTTRSCFAAAVLDGMIYAIGGYGPAHMNSVERYDPSKDSWEMVASMADKRIHFGVGVMLGFIFVVGGHNGVSHLSSIERYDPHQNQWTVCRPMKEPRTGVGAAVIDNYLYVVGGHSGSSYLNTVQKYDPISDTWLDSAGMIYCRCNFGLTAL”, the protein production entry was “failed”.

On to “MDHVQISVQKLDEILKLNGSALLNRVTLDIHQQLKSHCTCVVEVAHLQHAAHTISFASGGEISDNLSYHLSGTPCEKVAKDIGEHIFYQDQVYKRFPEDQMFQDDGVQAYLGLPLKTQSGEVLGILLSTFTRSIHAKEAQDVLELHRFYANVIIHSLREKWVSERSDKLLNQLSYEVSHDNLTGLLNRSCLADTLETLTQQATRPFNLAYLDIDNFKSINDINGNYIGDQIIKFTANAIQQSLSSPNNAFRVAGDEFAFITYDEDPVAVCQEVLDKIEAGYSDKSNRISFTVSIGIARAPVHMLNSDELILNASLALKDCKKHRDTRIQHYDTHLSALYHRQTQLIEAMRIQLSTSITESHELYVVLQPIVDVNNDRWDYFEILARWNSSVYGNISPAEFIEAAEQSGLIIELGERIIELACIAKQELEAHLGYTVKLSINCSAHELVDSNRYINHLTTLLERYGHDASDFVIELTETVLLSQSGREQMVLNSLRYLGFKVALDDFGTGYSSLNYIHNYPIDSIKIDATFVRNMLSNKTSEQVVYLIAQLAQLLDVDLIAEGVEDDRALNKLIDMGCHYIQGYFYSRPHNVDELVHMINDRQVKRA”, for which the protein production result is given as “failed”.

For the sequence “MDIISSYSPIHVVGGGLAGSEAAWQIASAGVPVILHEMRGVRGTDAHKTDGLAELVCSNSFRSDDATSNAVGVIHAEMRMAGSLIMAAADRHQVPAGGALAVDRDGFSDAVTRAIHDHPLITVMREEITGLPPSDWDLAIVATGPLTAPSLAAAIQAETGEDSLAFFDAIAPIVYRESIDMDICWYQSRYDKVGPGGTGKDYINCPMDEAQYNAFVNALIAGDTVGFKEWEGTPYFDGCLPIEVMAERGRETLRHGPMKPMGLTNAHNPTVKAYAVVQLRQDNALGTLYNMVGFQTKLKYGAQAEIFRMIPGLENAEFARLGGLHRNTYINSPTLLDPSLTLKSRPGLRFAGQITGCEGYVESASVGLMAGRFAAAERKGEAISLPPATTALGSLLGHITGGHIVTDEEPGKRSFQPMNINFGLFPELEPGSIVKPEGVKRFRGKDKTIMKRQLIARRALADCAAWLGQTRTLAERA”, the protein production entry is recorded as “failed”.

As to “MDILDLNKAQAVQQNEQEVEDKERESKEPVVLEDLSALAWLELEEFSRLSGLPKERILELVNLGKIKSKISSNKLLIDASSGTNALIKKVENSLISMDMNGRSLEPVFVEKTINTILNLHDKVIGAKDETISAFKNENMFLKDALISMQEVYEEDKKTIDLLRDELNQAREEIEFMKRKYRLMWGKVADMSSVNKK”, the protein production result is given as “failed”.

Consider “MDINMFILYFFIYSVLGWAWEEVFCSISEKKLVYRGFLYGPYCPIYGFGVTTVLMMILPFQNNLWALFIFSMIICTVIEYVTATILEALFHTTWWDYHNWPLNVKGRICLPISIFWGFACIIVVRFLHPLVTEFADWVLSWGGWIIPALIVVLMLIDTIKSVTSMLSFQKVLAEFNEKLTAQANELKASVKERAKEFEEGLLKKQENVDMKIAEMEAKRKQDKELAASMRKLKFNERRMLKSFPKMKVKRAAPFKNFNKSILRVDKQKRK”, for which the protein production entry is on record as “failed”.

Regarding “MDINNKARIHWACRRGMRELDISIMPFFEHEYDSLSDDEKRIFIRLLECDDPDLFNWLMNHGKPADAELEMMVRLIQTRNRERGPVAI”, the protein production entry is listed as “not failed”.

Consider “MDINYERPDPYYLLNKIDKEEKNKNRGKLKIFFGYAAGVGKTYAMLRAAHYMKELGKDIVIGYIEPHARMDTMSLTKGLPQIPVKNIDYKGVILREFDVDKALLRKPEIILVDELAHTNAKSQRNKKRWKDIEELLDAGIDVYTTLNVQHIESLNDIVANITHVSVRETIPDKVFDDADKVELIDIEPDELLKRFTDGKIYRKEQVKRAFNNFFTKNNLYALREIALRRTADRVNFEIEIARLSKGQITVMATSDQILACIGTSPSSARIIRTAARMAESYHSKWIALYVDTGRSLGKADKETLNANFNLVELLGGELVTVHGENVADQIIRYAELRNTTKIVIGKNHKRTGTLLHFYAKDVVDKLMDSNSYIDVYMIPNSSYYRDHKNSILSKISIQHKGSVKDVLKAIIIMAITTDIAELFSYMGFKDVNVIMIFILGVIIVYMATKGQIMGIISSIAAVLVFNYRFTEPKNSFIVYDKSYLVTFPIMMIVAFIIGSLTNKVQKEAQDSNMREKRTQTLYIVSGKLLSAVGTSEVVSIGIKYISRLVNRNVICYLADTSNKLSTPFVYKKDKGAKEEIIMSKDENAAAYWTFLNGKESGCGTSTFYRAKGYYIPIKIKNKVLGVIGVSCPSGPLRPQKKAVVDTVTGQIAIALDREILSKEQEKSKVEIERERLRSNLLRSISHDLRSPLAGIKGAASTILENGELIDEKRKQELINGIYEDTEWLIRLIENLLSMTKFDEGNTKIKKDVELVEEVVSEAVQRSSKYFKNHKIKVSVPEDVIMVSMDGSLIEQVIINLLDNASKFSPKGSTIEIKVYEKKKDVVFEIIDEGQGISEDILPNIFDRFFTNGSKISDSRRGVGLGLAICKSIVEAHGGKIEAVNKGSGGAIFKFNIPKEL”, for which the protein production result is given as “failed”.

For “MDISGRDVETRLTLAREFMSGVDELPTVPDIVLRIAGKLNDPDVAIDEVADLLLQDQVLTARVVHLANSPLYSAARPISSIRDAVIYLGLDLLREAIFTCAIVDLFKTGKGPLNRSTLWAHSLGVARIAKLIAERTGFLNPVNVYVAGLLHDVGEVFINFFRGKEFSQVVTLVDEEKITFGQAEERLFGTSHCEVGFALAKRWSLNEFICDTILYHHDIEAVPYKQAAIVAMVAFADEYCTLRRLGFEGHKPVDSVRTLLENHPSWGVIRRSLGGSDFDEKLIVAELDSSIVEIRAAVDELFLL”, the protein production entry is “failed”.

The values are drawn from a protein production outcome set (Wang et al. 2014).
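Also: failed if final PepcDB status was selected cloned or expressed and not failed if soluble or beyond.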
